Experiments:
[1] = molecular target: T1, human insulin receptor isoform B with C-terminal C9 tag (human, UniProt P06213 28-1382); assay: 125I-insulin competition SPA, hIR-B membranes, 0.1% HSA
T1 construct: membranes of stably transfected HEK293 cells; also called hIR-B; human IR-B
Description: (§1) The assays are performed with a SPA method using polyvinyltoluene (PVT) wheat germ agglutinin-coupled SPA beads (Perkin Elmer). Assay buffer contains 50 mM Tris-HCl, pH 7.5, 150 mM NaCl and either A) 0.1% w/v fatty-acid free BSA; B) 0.1% w/v fatty-acid free human serum albumin (HSA); C) 0.1% w/v rat serum albumin (RSA); or D) 0.001% Nonidet P-40 Substitute (NP-40, Roche Diagnostics). Ten-point concentration response curves using three-fold serial dilutions of test samples or controls are prepared in Assay Buffer using a Freedom/Evo robot (Tecan).
(§2) Percent specific inhibition (y-axis) is plotted versus the log concentration of compound (x-axis). […] Reported Ki values are shown as the geometric mean with the standard error (Delta Method Standard Error) and the number of independent replicate determinations used to calculate the geometric mean indicated by n.

[2] = molecular target: T1, human insulin receptor isoform B with …; assay: 125I-insulin competition SPA, hIR-B membranes, 0.1% BSA
Description: as §1, §2

rat serum albumin = molecular target: T2, rat serum albumin (rat, UniProt P02770 25-608); assay: SPR (Biacore 8K), albumin immobilised, 25 C, 1:1 kinetics
T2 construct: bought protein, amine-coupled to a CM5 chip; also called Rat SA; RSA
Description: (§3) Immobilization of serum albumin to a Series S Sensor Chip CM5 surface is performed according to the manufacturer's instructions (Amine Coupling Kit BR-1000-50). Briefly, carboxyl groups on the sensor chip surfaces (flow cell 1 and 2) are activated by injecting 70 μL of a mixture containing 75 mg/ml EDC and 11.5 mg/ml NHS at 10 μL/min. Human, cynomolgus monkey, mouse, rat, pig, dog, cow and rabbit serum albumin are diluted in 10 mM NaOAc pH 4.0 (BR-1003-49) at 1, 1, 3, 1, 1, 1, 1 and 1 μg/mL and then injected over the activated chip surfaces (flow cell 2, […]) at 10 μL/min for 90 sec (human, mouse, rat, pig and cow serum albumin are obtained from Sigma Aldrich (St. Louis, Mo.); cynomolgus monkey serum albumin is obtained from Holzel Diagnostika (Cologne, Germany); dog serum albumin is obtained from Molecular Innovations (Novi, Mich.); and rabbit serum albumin is obtained from Fitzgerald Industries International (Acton, Mass.)). […] Excess reactive groups on the surfaces (flow cell 1 and 2) are deactivated by injecting 70 μL of 1 M ETA HCl—NaOH pH 8.5 at 10 μL/min.
(§4) 150 μL of sample is individually injecting sequentially across the immobilized serum albumins surface and then dissociates for 600 sec at 50 μL/min flow rate at 25° C. The surface is regenerated by injecting 10 mM glycine-HCl pH 1.5 (BR-1003-54) at 50 μL/min for 100 sec. The resulting sensorgrams are analyzed using Biacore 8K Insight Evaluation Software (version 2.0.15.12933) 1:1 binding kinetics or steady-state affinity model fitting to calculate the binding kinetic parameter association rate (ka), dissociation rate (kd), and equilibrium dissociation constant (KD)

dog serum albumin = molecular target: T3, dog serum albumin (dog, UniProt P49822 25-608); assay: as above
T3 construct: bought protein, amine-coupled to a CM5 chip; also called Dog SA
Description: as §3, §4

mouse serum albumin = molecular target: T4, mouse serum albumin (mouse, UniProt P07724 25-608); assay: as above
T4 construct: bought protein, amine-coupled to a CM5 chip; also called Mouse SA
Description: as §3, §4

[3] = molecular target: T5, cynomolgus monkey serum albumin (cynomolgus monkey, UniProt A2V9Z4 25-608); assay: as above
T5 construct: bought protein, amine-coupled to a CM5 chip; also called Cyno SA
Description: as §3, §4

pig serum albumin = molecular target: T6, pig serum albumin (pig, UniProt P08835 25-607); assay: as above
T6 construct: bought protein, amine-coupled to a CM5 chip; also called Pig SA
Description: as §3, §4

human serum albumin = molecular target: T7, human serum albumin (human, UniProt P02768 25-609); assay: as above
T7 construct: bought protein, amine-coupled to a CM5 chip; also called Human SA; HSA
Description: as §3, §4

rabbit serum albumin = molecular target: T8, rabbit serum albumin (rabbit, UniProt P49065 25-608); assay: SPR (Biacore 8K), albumin immobilised, 25 C
T8 construct: bought protein, amine-coupled to a CM5 chip; also called Rabbit SA
Description: as §3, §4

[4] = molecular target: T9, human insulin receptor isoform A with C-terminal C9 tag (human, UniProt P06213 28-1382); assay: 125I-insulin competition SPA, hIR-A membranes, 0.001% NP-40
T9 construct: membranes of stably transfected HEK293 cells; also called hIR-A; human IR-A
Description: as §1, §2

[5] = molecular target: T9, human insulin receptor isoform A with …; assay: 125I-insulin competition SPA, hIR-A membranes, 0.1% HSA
Description: as §1, §2

cow serum albumin = molecular target: T10, cow serum albumin (cow, UniProt P02769 25-607); assay: SPR (Biacore 8K), albumin immobilised, 25 C, steady-state affinity
T10 construct: bought protein, amine-coupled to a CM5 chip; also called Cow SA; Bovine SA

[6] = molecular target: T1, human insulin receptor isoform B with …; assay: 125I-insulin competition SPA, hIR-B membranes, 0.001% NP-40
Description: as §1, §2

[7] = molecular target: T9, human insulin receptor isoform A with …; assay: 125I-insulin competition SPA, hIR-A membranes, 0.1% BSA
Description: as §1, §2

Ki [1]: 279 nM | Ki [2]: 790 nM | Kd (rat serum albumin): 34 nM | koff (rat serum albumin): 0.0066 s⁻¹ | kon (rat serum albumin): 200000 M⁻¹ s⁻¹ | Kd (dog serum albumin): 16 nM | koff (dog serum albumin): 0.0033 s⁻¹ | kon (dog serum albumin): 200000 M⁻¹ s⁻¹ | Kd (mouse serum albumin): 42 nM | koff (mouse serum albumin): 0.0092 s⁻¹ | kon (mouse serum albumin): 220000 M⁻¹ s⁻¹ | Kd [3]: 3.5 nM | koff [3]: 0.00079 s⁻¹ | kon [3]: 230000 M⁻¹ s⁻¹ | Kd (pig serum albumin): 90 nM | koff (pig serum albumin): 0.011 s⁻¹ | kon (pig serum albumin): 130000 M⁻¹ s⁻¹ | Kd (human serum albumin): 0.32 nM | koff (human serum albumin): 8.4e-05 s⁻¹ | kon (human serum albumin): 260000 M⁻¹ s⁻¹ | binding result (rabbit serum albumin): no binding (tested: up to 1000 nM) | Ki [4]: 174 nM | Ki [5]: 125 nM | Kd (cow serum albumin): 390 nM | Ki [6]: 641 nM | Ki [7]: 630 nM
B1: INS Analog 25 (other)
chain: FVSQHLCGSHLVEALRLVCGERGFFYTPKTGGGGGGGIVEQCCTSICSLYQLENYCGGGGGQGGGGQGGGGQGGGGQGGGGQEVQLLESGGGLVQPGGSLRLSCAASGRYIDETAVAWFRQAPGKEREFVAGIGGGVDITYYADSVKGRFTISRDNSKNTLYLQMNSLRPEDTAVYYCAARPGRPLITSKVADLYPYWGQGTLVTVSSPP
notes: single-chain insulin B-L2-A-L1-VHH fusion; also called Ex. 25

— patent publication US20220378931A1 (Eli Lilly, published 2022)
